The record followed here is a protein production outcome set (Wang et al. 2014).

A short description of this data set: label from the status in PepcDB records.
For the sequence “MKVLLVLTDAYSDCEKAITYAVNFSEKLGAELDILAVLEDVYNLERANVTFGLPFPPEIKEESKKRIERRLREVWEKLTGSTEIPGVEYRIGPLSEEVKKFVEGKGYELVVWACYPSAYLCKVIDGLNLASLIVK”, the protein production result is “not failed”.

With “MKVMIEKILLVQTLKRLPRMGWLIKGVQEPESIADHSFGVAFITLVLADVLEKRGKRIDVEKALKMAIVHDLAEAIITDIPLSAQEFVDKDKAEALVFKKVFPEFYELYREYQECSSPEAQLVRIADKLDMILQAYQYELSGNKNLDEFWEAIEEIKRLELSKYLEDILNSVGRLKA”, the protein production result was “not failed”.

Turning to “MKVSLGNGEMGVSAHLQPCKAGTTRFFTSNTHSSVVLQGFDQLRIEGLLCDVTLVPGDGDEIFPVHRAMMASASDYFKAMFTGGMKEQDLMCIKLHGVNKVGLKKIIDFIYTAKLSLNMDNLQDTLEAASFLQILPVLDFCKVFLISGVSLDNCVEVGRIANTYNLIEVDKYVNNFILKNFPALLSTGEFLKLPFERLAFVLSSNSLKHCTELELFKAACRWLRLEDPRMDYAAKLMKNIRFPLMTPQDLINYVQTVDFMRTDNTCVNLLLEASNYQMMPYMQPVMQSDRTAIRSDSTHLVTLGGVLRQQLVVSKELRMYDERAQEWRSLAPMDAPRYQHGIAVIGNFLYVVGGQSNYDTKGKTAVDTVFRFDPRYNKWMQVASLNEKRTFFHLSALKGHLYAVGGRSAAGELATVECYNPRMNEWSYVAKMSEPHYGHAGTVYGGLMYISGGITHDTFQNELMCFDPDTDKWMQKAPMTTVRGLHCMCTVGDKLYVIGGNHFRGTSDYDDVLSCEYYSPTLDQWTPIAAMLRGQSDVGVAVFENKIYVVGGYSWNNRCMVEIVQKYDPEKDEWHKVFDLPESLGGIRACTLTVFPPEENPGSPSRESPLSAPSDHS”, the protein production entry was “failed”.

With “MKVTQLSSETLDRAHERFEETLAQMTVAEANTMPAPLIKSVTWLMWHTARELDLQISALNHSDPLWLSQHWTEKFALDLPDETEDWHHTPEEAAKVVVAEKQLLSDYLAASVALTKSYLDQIKEEQLSDVIDKNWTPPVTRQVRLVSAIDDAVMHSGQAVYTRRLVIGK”, the protein production result was “not failed”.

Consider “MKVTVTTLELKDKITIASKALAKKSVKPILAGFLFEVKDGNFYICATDLETGVKATVNAAEISGEARFVVPGDVIQKMVKVLPDEITELSLEGDALVISSGSTVFRITTMPADEFPEITPAESGITFEVDTSLLEEMVEKVIFAAAKDEFMRNLNGVFWELHKNLLRLVASDGFRLALAEEQIENEEEASFLLSLKSMKEVQNVLDNTTEPTITVRYDGRRVSLSTNDVETVMRVVDAEFPDYKRVIPETFKTKVVVSRKELRESLKRVMVIASKGSESVKFEIEENVMRLVSKSPDYGEVVDEVEVQKEGEDLVIAFNPKFIEDVLKHIETEEIEMNFVDSTSPCQINPLDISGYLYIVMPIRLA”, for which the protein production entry is “not failed”.

“MKVVLVGATGFVGRHLLAALHAAGHQLIATSRRPQPQGLPGVEWRQLDLDCLGREPQPFALPADTDLLINAAGLLSTDARALSLTQDLGTRALFDLAAARGVRVLQISALGAGILPQVPFLASKAAADDYLLQLGVPAVVLRPSLVLGAGGASSGWLTRLSPWPLIPLLSAKAQMQPLHIEDLSAAVLALLRQWPQESMVLPLVGPERMTMAQLLDRLRSAQGWAPARYFKLPAVLLRLVAAAGDRLGWRALNRQSLAMARHDNLADPQVLASVCGYHAAPLAARLQDWPQAAQSTQLALRPLLLAVMVLIWLGTALVCIGPGYAWGLRIMAEAGVQGIWAALAVIGGSLCDALLGVGLLLRRWRRRALQAQLGLMLGYTLIISLILPHFWFDPYAAVAKNLVLMVATLWLLWTEPHQ”: the protein production entry was “failed”.

“MKVWPVKHSPLLRQPERFIARSELQALIRNVTQNLVNIKDESGQFLLRLDDGRVIDTKGWAGWEWTHGVGLYGIYQYYQQTGDIEMRDIIDRWFADRFAEGATTKNVNTMAPFLTLAYRFEETGRMAYLPWLESWAEWAMHEMPRTEQGGMQHMTLAEENHQQMWDDTLMMTVLPLAKIGKLLNRPQYVEEATYQFLLHVQNLMDRETGLWFHGWNYEGRHNFARARWARGNSWLTMVIPDFLELVDLPEGNAVRRYLITVLDAQIAALAECQDDSGLWHTLLDDPHSYLEASATAGFAYGILKAVRKRYVGQHYAGVAEKAIRGIVQNISPQGELLQTSFGTGMGSDLDFYRQIPLTSMPYGQAMAILCLTEYLRKYF”: the protein production result is “not failed”.

Turning to “MKVYLESFGCSASQASAEIMKASIGKLGHELLSPENAGQAEVYICNSCTVKYTTEQKILYKIRSMGEKGVQVIVSGCMPEVQLEDILHANPEAHILGVNAVSRLGDLLSTIEQRKKTGIPGGERLEIRTSEPQGFLNVPRERSNPNIHICQISQGCNFACSYCIVKHARGKLLSFPPEEIIEDIRSAVADGCREIWLTSQDDSQYGMDTGVKLPELLRAISEIPGDFKVRVGMMNPFSVLPILDDLVDAFDSDKIFKLLHLPIQSASHSVLKKMNRLHKMDSVDEIITKFRAHFEDLSLFTDIIVGFCDETDEDFEETIEWVKKYRPEKINISRYSPRPHTKAFSFRNLDSRISVKRSHQLHKVCEQIKIESKNEMIGWKGRVFVSKYTEIGDVLTRTDSYRPVVISGSDLRPGEYAEVKITGAKPGYFLGKLVSLEHHHHHH”, the protein production result is given as “not failed”.

In the case of “MKWDKKWNDGIILALETAFISWFTYAFLYQNYLLYKWHRGSPLPSKIPFVLAGIFVGLAFLAWKGRNLLKPLRENNGGALDERS”, the protein production result is “failed”.

For the sequence “MKWNLDPSHTSIDFKVRHMGIASVRGSLKVLSGSVETDEAGRPIQVEAVIDAASIATGEPQRDGHLRSADFLHAEQYPEIRFVSTQIEPLGGNRYRIQGNLTIRDITKPVTLEAEVSAPIKDPWGMQRVAASASGQINRKDWNLTWNQVLELGALLVGEEVKFNLEVEAVAPAPVAAQ”, the protein production result is given as “not failed”.

As for “MKYEYPAELPVSAARDEIASAVKRSQVVIVSGQTGSGKTTQLPKILLELGRGTHGKQIVHTQPRRIAARTVAERIASEMGVKLGDEVGYQVRFTDESSPGTRLRVVTDGILLAQIQRDPKLTRYDTIIIDEAHERSLNIDFLLGYLTALLPQRRDLKLIITSATIDSVKFQEHFEHALHEKVPVIEVSGRTFPVQVVYEPLGTAPALMREVPGFAVGARPGDADYDELASAIAESDSDRPRGRSGASYADDGITDMPTAVARACAELVIHSSHERGPRDILVFASGERDIHEFEAALRHHYGPRADDMRRPDAIEIMPLFARLSAADQHKVFESHLHQRIVIATNVAETSLTVPGIRYVVDPGSARISRYSKTAKVQRLPIEPISQASADQRSGRCGRVADGIAIRLYSREDYETRPRFTEPEILRTSLGAVVLHMLSVGVARTAEDVTNFGFIDPPDMKAVSDGFNELTELKAIGRKRGEVTLTHTGRQLARIPIDVRLGRMVIEAAKTGSPNLLAQVLVVVAFLSLQDPRERPDDKREDADRIHNRYADETSDFLTALNIWDRVFQADGDPSNNALRRICKTEYFSWLRMRQWKDLVSQLRQMCKELKFKVGDPLPASRPGLEIRQLPLNQQAAHSLCCAWDADGIHKSMLAGLLSMMGMQVVREPKASDFAGLTGSARARAMKRAQKQSKNDYQGARGTRFALFPASAVAKKTPSWVMSTELVETSRLWARYSAAIDPAWAEPLAGQLTRTTYAEPHWSGSRGSAVATARVLLYGLPIVQDRAVQWGRINPLEARDFLIRQGLVEGDIQQRFSYDDFVGKNRDILEDAADDASRTRQLADTVSDEDLFDFYNAVIPNDVTSVADLAKWWKSEHDRQPNLLDFDPAKVERLASSDSVSLDDYPDHWHTTGSDGQPIDLRLSYVYDPADPADGVTVHVPLKALSRITPDQFTWNVPGLLDELILSMIKALPKQLRVQFVPAPDAARAIRDWIDEHYPDLPGSGSQQKPNLPPVDEDGTTVGWPDLAHVFTKAAIATKGAQIHPEVLGPELVERLSPYLRVTFSVEQQLPAGKHPRGRRHARGPIKVLGVSKDLKALQRKFAAQAEASARQMVKKQADQAGEQGKLVSQANLLHKAGATTESRATMLWRGALDALRLPAERISSRWLGTEALMLASAPYKSTKDLVEDLQLATVKRLMPNVDRLSDDEALANAVLDVREVYEDTVYQVAHDVIAVLKAYAEVDKATGGKADLPMLSVLQSIRDHIATLVYPGFIGRTPPDALKSLSRYLRADLSRLNKAKTDKNRDVKWAWQADEARQVVDKALARAKAEPAGPKHEALMKQAEQARWMLEEFYVSLWAQELGTKGPASLNRIKKALA”, the protein production entry is listed as “failed”.
